For 21 molecules, Kd and ELISA fluorescence units results are on record in patent publication US20180057581A1 (MorphoSys, published 2018).

Substitutions are numbered along the chain they refer to.

The chains are these.
T1: human M-CSF (human, UniProt P09603 33-255, limits assumed)
T1 construct: also called M-CSF (human); CSF-1
T1 sequence: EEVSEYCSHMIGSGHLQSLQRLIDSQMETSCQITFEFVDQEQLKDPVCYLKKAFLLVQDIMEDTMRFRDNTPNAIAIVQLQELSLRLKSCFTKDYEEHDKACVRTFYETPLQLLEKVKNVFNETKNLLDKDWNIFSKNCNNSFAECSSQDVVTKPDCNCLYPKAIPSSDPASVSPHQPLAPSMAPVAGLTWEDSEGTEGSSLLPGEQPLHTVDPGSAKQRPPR

T2: Recombinant cynomolgus monkey sgM-CSF (cynomolgus (Macaca fascicularis), UniProt P09603 33-255 (human entry), limits assumed)
T2 construct: used also where only 'cynomolgus M-CSF' is printed (ELISA result, SET); also called cynomolgus sgM-CSF; cyno sgM-CSF
T2 chain: T1 sequence with V186M, E192D

B1: 8.10.3F, Fab (Fab, V domains shown)
VH: EVQLVESGGGLVQPGGSLRLSCAASGFTFSSFSMTWVRQAPGKGLEWVSYISSRSSTISYADSVKGRFTISRDNAKNSLYLQMNSLRDEDTAVYYCARDPLLAGATFFDYWGQGTLVTVSS
VL: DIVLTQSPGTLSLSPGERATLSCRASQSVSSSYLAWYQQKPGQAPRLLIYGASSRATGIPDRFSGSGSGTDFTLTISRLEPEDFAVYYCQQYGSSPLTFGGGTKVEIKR
notes: Prior art antibody; also called 8.10.F3
B2: Romaine, Fab (Fab, V domains shown)
VH: EVQLVESGGGLVKPGGSLRLSCAASGFTFSIYAMSWVRQAPGKGLEWVGRIKSNADGGTTEYAAPVKGRFTISRDDSKNTLYLQMNSLKTEDTAVYYCARMRYYSDLYFDPWGQGTLVTVSS
VL: DIELTQPPSVSVSPGQTASITCSGDAIGSKYVHWYQQKPGQAPVLVISKDNKRPSGIPERFSGSNSGNTATLTISGTQAEDEADYYCQTATVSSYWWVFGGGTKLTVLG
B3: Satine, Fab (Fab, V domains shown)
VH: B2 VH
VL: SYELTQPPSVSVSPGQTASITCSGDKLGQKYVSWYQQKPGQSPVLVISQDRKRPSGIPERFSGSNSGNTATLTISGTQAEDEADYYCQTWTHLQWVFGGGTKLTVLG
B4: HeRX1-10G1, Fab (Fab, V domains shown)
VH: QVQLQESGPGLVKPSQTLSLTCTVSDYSITSDYAWNWIRQFPGKGLEWMGYISYSGSTSYNPSLKSRITISRDTSKNQFSLQLNSVTAADTAVYYCASFDYAHAMDYWGQGTTVTVSS
VL: DIVLTQSPAFLSVTPGEKVTFTCQASQSIGTSIHWYQQKTDQAPKLLIKYASESISGIPSRFSGSGSGTDFTLTISSVEAEDAADYYCQQINSWPTTFGGGTKLEIKR
notes: Prior art antibody
B5: Madeleine, Fab (Fab, V domains shown)
VH: QVQLQQSGPGLVKPSQTLSLTCAISGDSVSSNSAAWNWIRQSPSRGLEWLGRTYYRSKWKKEYAQSVKSRITINPDTSKNQFSLQLNSVTPEDTAVYYCARDRYYYSAFDYWGQGTLVTVSS
VL: QSALTQPASVSGSPGQSITISCTGTSSDVGGYNSVSWYQQHPGKAPKLMIYAVSNRPSGVSNRFSGSKSGNTASLTISGLQAEDEADYYCASYDERFTRVFGGGTKLTVLG
B6: Maelle, Fab (Fab, V domains shown)
VH: B5 VH with D27E, S31T, N32S
VL: B5 VL with M49I
B7: Laurine, Fab (Fab, V domains shown)
VH: B5 VH
VL: B5 VL with Q1D, S2I
B8: Blanche, Fab (Fab, V domains shown)
VH: B5 VH with K61H, Q65M
VL: B5 VL with Q1D, S2I
B9: Caline, Fab (Fab, V domains shown)
VH: B5 VH with K61H, Q65M
VL: B5 VL
B10: Meriem, Fab (Fab, V domains shown)
VH: B5 VH with S31T, N32S
VL: B5 VL with M49I
B11: Camille, Fab (Fab, V domains shown)
VH: B5 VH with D27E, S31T, N32S, K61H, Q65V
VL: B5 VL with M49L
B12: Romaine (format not stated) (antibody, V domains shown)
VH: B2 VH
VL: B2 VL
B13: Satine (format not stated) (antibody, V domains shown)
VH: B2 VH
VL: B3 VL
B14: Servane (format not stated) (antibody, V domains shown)
VH: B2 VH with I31T, M34I, R50F, N54K, A55H, D56N, G57S
VL: B3 VL
B15: Madeleine (format not stated) (antibody, V domains shown)
VH: B5 VH
VL: B5 VL
B16: Blanche (format not stated) (antibody, V domains shown)
VH: B5 VH with K61H, Q65M
VL: B5 VL with Q1D, S2I
B17: Laurine (format not stated) (antibody, V domains shown)
VH: B5 VH
VL: B5 VL with Q1D, S2I
B18: Meriem (format not stated) (antibody, V domains shown)
VH: B5 VH with S31T, N32S
VL: B5 VL with M49I
B19: Celine (format not stated) (antibody, V domains shown)
VH: B5 VH with S31T, N32S, K61H, Q65V
VL: B5 VL with M49I
B20: Maelle (format not stated) (antibody, V domains shown)
VH: B5 VH with D27E, S31T, N32S
VL: B5 VL with M49I
B21: Caline (format not stated) (antibody, V domains shown)
VH: B5 VH with K61H, Q65M
VL: B5 VL

The first assay concerns the target T1, human M-CSF. The assay is described as follows: soluble equilibrium titration (SET), Fab, monovalent. As for the experimental part: (§1) The monovalent affinity of the antibodies of the present disclosure was determined by soluble equilibrium titration (Haenel et al. (2005) Anal Biochem 339, 182-4).
In the case of B1, the affinity, expressed as Kd, was 0.038 nM.

Consider B2, for which binding was characterised by a dissociation constant (Kd) of 0.013 nM.

On to B3, for which the Kd (commonly the concentration at which binding is half-saturated) is under 0.002 nM.

B4 returned a Kd of over 1 nM.

Take B5: the Kd was found to be 0.028 nM.

For B6, binding was put at a Kd of 0.013 nM.

For B7, binding was put at a Kd of 0.096 nM.

The molecule B8 registered a Kd of 0.096 nM.

Take B9: binding was characterised by a dissociation constant (Kd) of 0.014 nM.

Regarding B10, the Kd was determined as 0.011 nM.

In the case of B11, the Kd came to 0.018 nM.

The target of a further assay is T2, Recombinant cynomolgus monkey sgM-CSF. The description is as above. As to the method: as §1
With B2, the Kd came out at 0.007 nM.

On to B5, for which the Kd was determined as 0.03 nM.

As to B6, the Kd was 0.027 nM.

Consider B7, for which the Kd was determined as 0.15 nM.

Turning to B8, the Kd came to 0.13 nM.

With B9, the Kd came out at 0.016 nM.

On to B10, for which the Kd was 0.013 nM.

In the case of B11, the Kd is 0.025 nM.

The next assay deals with T1, human M-CSF. As to the kind of experiment: ELISA. As to the method: (§2) BSA was used as a negative control substrate.
(§3) After blocking of plates with 5% skim milk powder in PBS, Fab-containing E. coli lysates, IgG-containing cell culture supernatants or purified IgG or Fab proteins were added. Binding of Fabs or IgGs was detected by F(ab)₂ specific goat anti-human IgG conjugated to alkaline phosphatase (Dianova Cat# 109-055-097; diluted 1:5000) using Attophos fluorescence substrate (Roche, #11681982001). Fluorescence emission at 535 nm was recorded with excitation at 430 nm.
In turn, B12 returned an ELISA fluorescence units of over 35000 units.

Take B13: the ELISA fluorescence units is over 35000 units.

For B14, the ELISA fluorescence units is over 35000 units.

In turn, B15 showed an ELISA fluorescence units of over 35000 units.

Molecule B16 registered an ELISA fluorescence units of over 35000 units.

Molecule B17 displayed an ELISA fluorescence units of over 35000 units.

The molecule B18 had an ELISA fluorescence units of over 35000 units.

In the case of B19, the ELISA fluorescence units was over 35000 units.

On to B20, for which the ELISA fluorescence units was over 35000 units.

As for B21, the ELISA fluorescence units was over 35000 units.

The next assay deals with T2, Recombinant cynomolgus monkey sgM-CSF. The assay is described as follows: ELISA. As for the experimental part:
as §2, §3
Background: ELISA stands for enzyme-linked immunosorbent assay.
B12: the ELISA fluorescence units is over 35000 units.

For B13, the ELISA fluorescence units was over 35000 units.

Turning to B14, the ELISA fluorescence units was over 35000 units.

With B15, the ELISA fluorescence units is over 35000 units.

Regarding B16, the ELISA fluorescence units was over 35000 units.

In the case of B17, the ELISA fluorescence units is over 35000 units.

As for B18, the ELISA fluorescence units is over 35000 units.

As to B19, the ELISA fluorescence units was over 35000 units.

Consider B20, for which the ELISA fluorescence units was over 35000 units.

B21: the ELISA fluorescence units is over 35000 units.
